The source of these data is patent JPH06217786A.

The target of this test is FHV−1-K1ウイルス粒子 (feline herpesvirus-1, strain K1, virus particles; crude ammonium sulfate precipitate). The test can be described thus: cell-based or functional assay.

B1: 抗FHV−1キメラ抗体FH2 (cat-type anti-FHV-1 chimeric antibody FH2) (antibody, part only; not given: cat constant regions, part only)
heavy, part: QVTLKESGPGILQPSQTLSLTCSFSGFSLSTSGMGAGWIRQPSGKGLEWLAHIWWDDVKRYNPALKSRLTISKDTSSSQVFLKIASVDTADTATYFCVRSQIYFDYDGAWFPFWGQGTLVTVSA
light, part: DIVLTQSPATLSVTPGDSVSLSCRASQSISNNLHWYQQKSHESPRLLIKYASQSISGIPSRFSGSGSGTDFTLSINSVETEDFGMYFCQQSNSWPHTFGAGTKLELK
On to B1, for which the 最低有効中和濃度 (lowest effective neutralising concentration; 100 TCID50 FHV-1, CPE on CRFK cells) is 1.95 µg/mL.
